Laboratory results as given in US20200087380A1 (Chugai, published 2020).
Where “and” joins values, the source holds several entries; their conditions need not be identical. Equal entries are not always repeated. Where two headings read alike, the source gives them in different places.

Key:
Experiment in all cases: SPR (Biacore T100), antibody captured on Protein A/G chip, antigen as analyte, 25 C, 1:1 Langmuir fit
GPC3 [1] = target: T1, GPC3 (UniProt P51654 25-563, limits assumed)
T1 construct: also called glypican-3
T1 sequence (P51654 25-563 limits assumed): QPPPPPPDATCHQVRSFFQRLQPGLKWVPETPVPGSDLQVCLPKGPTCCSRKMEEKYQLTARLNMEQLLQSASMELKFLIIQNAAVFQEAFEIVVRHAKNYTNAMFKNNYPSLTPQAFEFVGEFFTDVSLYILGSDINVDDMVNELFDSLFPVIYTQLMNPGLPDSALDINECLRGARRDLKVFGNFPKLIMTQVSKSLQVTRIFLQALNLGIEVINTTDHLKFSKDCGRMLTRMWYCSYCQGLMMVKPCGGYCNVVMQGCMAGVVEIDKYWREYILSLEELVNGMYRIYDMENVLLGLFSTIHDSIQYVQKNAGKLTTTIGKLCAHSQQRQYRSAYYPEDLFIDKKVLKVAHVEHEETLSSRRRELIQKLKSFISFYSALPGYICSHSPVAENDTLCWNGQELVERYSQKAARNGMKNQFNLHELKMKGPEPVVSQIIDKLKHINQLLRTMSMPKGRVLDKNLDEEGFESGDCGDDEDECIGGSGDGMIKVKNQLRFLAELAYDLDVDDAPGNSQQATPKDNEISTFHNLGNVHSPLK
Protocol: (§1) Interactions between a target antibody and hIL6R or GPC3 were analyzed using Biacore T100 (GE Healthcare). HBS-EP+(GE Healthcare) was used for the running buffer, and the measurement temperature was 25° C. Protein A/G (Thermo Scientific) was immobilized on the Series S Sensor Chip CMS (GE Healthcare) by amine coupling, and was used as a chip. A target antibody was captured onto the chip, and interacted with each antigen diluted with running buffer. Antibodies captured on the chip were washed off by reacting with 10 mM glycine-HCl (pH 1.5) to regenerate the chip to be used repeatedly.
(§2) More specifically, the association rate constant ka (L/mol/s) and dissociation rate constant kd (1/s) were calculated by global fitting sensorgrams obtained by measuring with the Biacore Evaluation Software in a 1:1 Langmuir binding model, followed by calculation of dissociation constant KD (mol/L) from those values.

GPC3 [2] = target: T1, GPC3; remark: listed apart in the source
Protocol: as §1, §2

hIL6R = target: T2, hIL6R (human, UniProt P08887 20-357, limits assumed)
T2 construct: Printed as hIL6R
T2 sequence (looked up): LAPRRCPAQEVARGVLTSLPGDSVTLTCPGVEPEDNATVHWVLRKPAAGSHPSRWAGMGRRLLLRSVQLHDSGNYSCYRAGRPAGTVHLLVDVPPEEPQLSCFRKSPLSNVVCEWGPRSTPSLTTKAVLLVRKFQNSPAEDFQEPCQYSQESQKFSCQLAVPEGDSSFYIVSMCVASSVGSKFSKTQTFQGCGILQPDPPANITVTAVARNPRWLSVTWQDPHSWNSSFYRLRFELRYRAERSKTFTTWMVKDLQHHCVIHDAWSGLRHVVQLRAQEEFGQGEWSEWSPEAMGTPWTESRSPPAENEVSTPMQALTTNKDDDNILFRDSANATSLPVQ
Protocol: as §1, §2

| Binder | Kd (GPC3 [1]) | koff (GPC3 [1]) | kon (GPC3 [1]) | Kd (GPC3 [2]) | koff (GPC3 [2]) | kon (GPC3 [2]) | Kd (hIL6R) | koff (hIL6R) | kon (hIL6R) |
| --- | --- | --- | --- | --- | --- | --- | --- | --- | --- |
| anti-GPC3 antibody with H chain constant region TH13 (K147E, Q175E) and L chain constant region TL16 (T180K, S131K, Q160K) (antibody, human IgG1, kappa, IgG1/kappa; also called TH13/TL16) heavy: not shown light: DIVMTQSPLSLPVTPGEPASISCQASESLVHSNRNTYLHWYLQKPGQSPQLLIYKVSNRFSGVPDRFSGSGSGTDFTLKISRVEAEDVGVYYCSQNTHVPPTFGQGTKVEIERTVAAPSVFIFPPSDEQLKSGTAKVVCLLNNFYPREAKVQWKVDNALQSGNSKESVTEQDSKDSTYSLSSTLKLSKADYEKHKVYACEVTHQGLSSPVTKSFNRGEC | 1.5 nM | 0.0004 s⁻¹ | 270000 M⁻¹ s⁻¹ |  |  |  |  |  |  |
| anti-GPC3 antibody with H chain constant region G1d and L chain constant region k0 (GpH7-G1d / GpL16-k0) (antibody, human IgG1, kappa, IgG1/kappa; also called G1d/k0; native G1d/k0) heavy: not shown light: DIVMTQSPLSLPVTPGEPASISCQASESLVHSNRNTYLHWYLQKPGQSPQLLIYKVSNRFSGVPDRFSGSGSGTDFTLKISRVEAEDVGVYYCSQNTHVPPTFGQGTKVEIERTVAAPSVFIFPPSDEQLKSGTASVVCLLNNFYPREAKVQWKVDNALQSGNSQESVTEQDSKDSTYSLSSTLTLSKADYEKHKVYACEVTHQGLSSPVTKSFNRGEC | 1.3 nM | 0.00036 s⁻¹ | 270000 M⁻¹ s⁻¹ |  |  |  |  |  |  |
| anti-GPC3 antibody with H chain constant region TH2 (Q175K) and L chain constant region TL17 (T180E, S131E, Q160E) (antibody, human IgG1, kappa, IgG1/kappa; also called TH2/TL17) heavy: not shown light: DIVMTQSPLSLPVTPGEPASISCQASESLVHSNRNTYLHWYLQKPGQSPQLLIYKVSNRFSGVPDRFSGSGSGTDFTLKISRVEAEDVGVYYCSQNTHVPPTFGQGTKVEIERTVAAPSVFIFPPSDEQLKSGTAEVVCLLNNFYPREAKVQWKVDNALQSGNSEESVTEQDSKDSTYSLSSTLELSKADYEKHKVYACEVTHQGLSSPVTKSFNRGEC | 1.4 nM | 0.00039 s⁻¹ | 280000 M⁻¹ s⁻¹ |  |  |  |  |  |  |
| anti-GPC3 antibody with H chain constant region TH15 (K147E, Q175E, K213E) and L chain constant region TL19 (T180K, S131K, Q160K, E123K) (antibody, human IgG1, kappa, IgG1/kappa; also called TH15/TL19) heavy: not shown light: DIVMTQSPLSLPVTPGEPASISCQASESLVHSNRNTYLHWYLQKPGQSPQLLIYKVSNRFSGVPDRFSGSGSGTDFTLKISRVEAEDVGVYYCSQNTHVPPTFGQGTKVEIERTVAAPSVFIFPPSDKQLKSGTAKVVCLLNNFYPREAKVQWKVDNALQSGNSKESVTEQDSKDSTYSLSSTLKLSKADYEKHKVYACEVTHQGLSSPVTKSFNRGEC | 0.99 nM | 0.00038 s⁻¹ | 390000 M⁻¹ s⁻¹ |  |  |  |  |  |  |
| 4ch_001 (anti-IL6R MH0-G1d/ML0-k0 and anti-GPC3 GpH7-G1d/GpL16-k0, no CH1/CL or KiH modification) (bispecific antibody, human IgG1, kappa, Four chains co-expressed without pairing control) heavy 1: not shown light 1: not shown heavy 2: not shown light 2: DIVMTQSPLSLPVTPGEPASISCQASESLVHSNRNTYLHWYLQKPGQSPQLLIYKVSNRFSGVPDRFSGSGSGTDFTLKISRVEAEDVGVYYCSQNTHVPPTFGQGTKVEIERTVAAPSVFIFPPSDEQLKSGTASVVCLLNNFYPREAKVQWKVDNALQSGNSQESVTEQDSKDSTYSLSSTLTLSKADYEKHKVYACEVTHQGLSSPVTKSFNRGEC |  |  |  | 1.3 nM | 0.00036 s⁻¹ | 270000 M⁻¹ s⁻¹ | 2.6 nM and 2.8 nM | 0.00041 s⁻¹ | 150000 M⁻¹ s⁻¹ |
| 4ch_004 (anti-IL6R MH0-TH2k/ML0-TL17 and anti-GPC3 GpH7-TH13h/GpL16-TL16; KiH + CH1/CL_1) (bispecific antibody, human IgG1, kappa, IgG1/kappa bispecific with knob (k) and hole (h) H chains) heavy 1: not shown light 1: not shown heavy 2: not shown light 2: DIVMTQSPLSLPVTPGEPASISCQASESLVHSNRNTYLHWYLQKPGQSPQLLIYKVSNRFSGVPDRFSGSGSGTDFTLKISRVEAEDVGVYYCSQNTHVPPTFGQGTKVEIERTVAAPSVFIFPPSDEQLKSGTAKVVCLLNNFYPREAKVQWKVDNALQSGNSKESVTEQDSKDSTYSLSSTLKLSKADYEKHKVYACEVTHQGLSSPVTKSFNRGEC |  |  |  | 1.4 nM | 0.00038 s⁻¹ | 270000 M⁻¹ s⁻¹ | 2.8 nM | 0.00047 s⁻¹ | 170000 M⁻¹ s⁻¹ |
| 4ch_006 (anti-IL6R MH0-TH2k/ML0-TL17 and anti-GPC3 GpH7-TH15h/GpL16-TL19; KiH + CH1/CL_2) (bispecific antibody, human IgG1, kappa, IgG1/kappa bispecific with knob (k) and hole (h) H chains) heavy 1: not shown light 1: not shown heavy 2: not shown light 2: DIVMTQSPLSLPVTPGEPASISCQASESLVHSNRNTYLHWYLQKPGQSPQLLIYKVSNRFSGVPDRFSGSGSGTDFTLKISRVEAEDVGVYYCSQNTHVPPTFGQGTKVEIERTVAAPSVFIFPPSDKQLKSGTAKVVCLLNNFYPREAKVQWKVDNALQSGNSKESVTEQDSKDSTYSLSSTLKLSKADYEKHKVYACEVTHQGLSSPVTKSFNRGEC |  |  |  | 1.2 nM | 0.00042 s⁻¹ | 340000 M⁻¹ s⁻¹ | 2.2 nM | 0.00043 s⁻¹ | 200000 M⁻¹ s⁻¹ |
| 4ch_008 (anti-IL6R MH0-TH13k/ML0-TL16 and anti-GPC3 GpH7-TH2h/GpL16-TL17; KiH + CH1/CL_1) (bispecific antibody, human IgG1, kappa, IgG1/kappa bispecific with knob (k) and hole (h) H chains) heavy 1: not shown light 1: not shown heavy 2: not shown light 2: DIVMTQSPLSLPVTPGEPASISCQASESLVHSNRNTYLHWYLQKPGQSPQLLIYKVSNRFSGVPDRFSGSGSGTDFTLKISRVEAEDVGVYYCSQNTHVPPTFGQGTKVEIERTVAAPSVFIFPPSDEQLKSGTAEVVCLLNNFYPREAKVQWKVDNALQSGNSEESVTEQDSKDSTYSLSSTLELSKADYEKHKVYACEVTHQGLSSPVTKSFNRGEC |  |  |  | 1.5 nM | 0.00039 s⁻¹ | 260000 M⁻¹ s⁻¹ | 2.8 nM | 0.00046 s⁻¹ | 160000 M⁻¹ s⁻¹ |
| 4ch_010 (anti-IL6R MH0-TH15k/ML0-TL19 and anti-GPC3 GpH7-TH2h/GpL16-TL17; KiH + CH1/CL_2) (bispecific antibody, human IgG1, kappa, IgG1/kappa bispecific with knob (k) and hole (h) H chains) heavy 1: not shown light 1: not shown heavy 2: not shown light 2: DIVMTQSPLSLPVTPGEPASISCQASESLVHSNRNTYLHWYLQKPGQSPQLLIYKVSNRFSGVPDRFSGSGSGTDFTLKISRVEAEDVGVYYCSQNTHVPPTFGQGTKVEIERTVAAPSVFIFPPSDEQLKSGTAEVVCLLNNFYPREAKVQWKVDNALQSGNSEESVTEQDSKDSTYSLSSTLELSKADYEKHKVYACEVTHQGLSSPVTKSFNRGEC |  |  |  | 1.4 nM | 0.00041 s⁻¹ | 290000 M⁻¹ s⁻¹ | 2.4 nM | 0.00059 s⁻¹ | 240000 M⁻¹ s⁻¹ |
